Results: the DeepSol protein solubility set

Assay: soluble on expression in E. coli; label from the status in PepcDB or PDB records
For “MSRNRVMSIDFQQLPHAGIRSLIPYVPGKSIEELAKEKGITDIIKLASNENPLGCSPLALSVIQTMSSHYIATYPSPWNHPLMSKLASYLKVKPEQLFLSNGSDYLFNILLNCFALHTDRHILTHDYAFSTYAIQANSLQIPINSVPIGHNWEVNITDIVNACNQQTGIIFIANPNNPTGVLIQQEEIKYLLEQIPKSTLLVLDEAYYEFAASQLTVNSLDWLEEHPNLVVTRTFSKIYGMAGLRLGYAIANPSIINILKRVQLPFIVNQVALAAAYAAIDDDDFIQSSLKMNNEGMLQLQAGFNELNIKYLPSSCNFLTFDCEEDSMALYNYLLDNGIIVRPLHAYKMNNFIRVTIGTKEQNSRFLTALKNFYL”, the “soluble on expression in E. coli” value was “not soluble”. For “MYCKPHRPGNTPQVPDNKGKCTRLVDYLSKESQVERPYYDNFFSQQKDYVIPLTVKNHIDNNHRTLKSNDDKFYMLSINPSGDEQRHLIERVTGRKVGEFSELTPGEQESVLAQMKKFTRECMDEYARNFYREKIKSGDDLVWYGRVETERHYKNDDPEVKAGRVKAGDKKPGLQLHVHVIVSRMDRTQTVSLSPLSKSRGNRQILEGREVVVGFDRSQWSSRCASRFNQSYDYFPNYYSRDESLRKYSENWQAKNELKNEAVSKLKQEVLKGELKEERRLYANTFRIYRFVVNPRKAIIQELKRLGTDLLSGRDL”, the “soluble on expression in E. coli” value was “not soluble”. In the case of “MGSDKIHHHHHHMLTPIPQIQHLFATNRRSARWLQLAFLLMALYYAPFSHAACTTPPSNTVLGPYGSSVVGVNGTPQVVASGSGFRCTGSVLSLASTNTITATIQSDSNPSGTTMRMRRGTTTDYVPYSLCMDSGCGTLYNINSTYTWSRTTFLDILGLFNSTDGTMPIYIRTSIGSNVSAGTYTDTVTIKWDYRLCALGILGLCSYDEGSTTSTLNITMTITNDCQITSAPNISFGTAAFPANFAAVNNNLGVRCTLLGAYTVKLVSTHPDDANWRRMTATVGSTPYYLQYQLYRTGNIAWTETNDYSGAGTGITQNIPYTARINASQASKPEGTYKDTVTINVTIN”, the “soluble on expression in E. coli” value was “not soluble”. With “MSLTDLTKANEWLKDADAVIVTAGNGMAKEEGLDILSEENFDNQFGEIAEKYDVHTIGDALDKEFDSWEEKWTFWSKLINEYSLQYEKSENMKALEKLLEDKEYFIATSTFAHFFENAGFNENRIFDAFGDWTKMQCSSGINHGQKDNREVVKQFLQGKGELPKCEDCGSPMELHMPLNAHFFPDTDANTRFRWFLTGNEEKNVVVLELGVDATSPQLLDPMVNLVQQFSNWHYIAADLANDNLPDDLKKRAIGFGSDTHETLMNLTKEGHHHHHH” the “soluble on expression in E. coli” value was “soluble”. For “AKQDYYEILGVSKTAEEREIRKAYKRLAMKYHPDRNQGDKEAEAKFKEIKEAYEVLTDSQKRAAYDQYGHAAFEQGGMGGGGFGGGADFSDIFGDVFGDIFGGGRGR”, the “soluble on expression in E. coli” value was “soluble”. For “MTKIRQKSRKPGRTSRAKPVVAVVWYEDEQEWRAMRDLADDPERFEDSYEAWLTMFDRSLERLREGGAFPVRTPCNATKYREWCESKARSFDACSRSEYAAREFQARATQDE”, the “soluble on expression in E. coli” value was “not soluble”. With “MAHHHHHHMSDVIKLCEAEELKELFIKEYNEYLKLIKNVELYYEKLEINWKKFHLFYQQNKKDPFEYHKEKNKHNKIKKVQNKKKNINIHSDYQSIEKYFKMIQKKEIQNNCHYYKKFDYDKDSFILFTLKKNVNNAVELYININIEKLNKIKNYLLNYINDFCKRQINQIINLIILCEIKLNNLYISQKNHFTNNNIKIKHIHLIKNIIHFNQQFIFEVTKNLIPFFTNFNIFSSPDYFNYQFNYFNNCVEIMGE” the “soluble on expression in E. coli” value was “not soluble”. With “MIEAEEQQPCKTDFYSELPKVELHAHLNGSISSHTMKKLIAQKPDLKIHDQMTVIDKGKKRTLEECFQMFQTIHQLTSSPEDILMVTKDVIKEFADDGVKYLELRSTPRRENATGMTKKTYVESILEGIKQSKQENLDIDVRYLIAVDRRGGPLVAKETVKLAEEFFLSTEGTVLGLDLSGDPTVGQAKDFLEPLLEAKKAGLKLALHLSEIPNQKKETQILLDLLPDRIGHGTFLNSGEGGSLDLVDFVRQHRIPLGKAWSFRSSR” the “soluble on expression in E. coli” value was “soluble”. In the case of “MGSDKIHHHHHHMDLRQLPALNAIRAFEAAARHENFSRAADELFVTHGAVSHQVRALEEELGVQLFARNGKRLCLTGAGMRYAQQVRTALMMLADATREVRASDRDRRLVVSMLSSFAARFVTPRIGTFIERHPEIDVELQSTNNLTDFARDDVDLAIRFGFGNYPGLHVEPLFDEVFFPACAPTLNGGKLPQTPADLVHYNLLRSDDELWRPWFDAAGLDTLTEPKRGILYQDSSNLLLAAIEGQGIALVRRSLAVHDLLDGRLVRLFDIDGASPWHYFFVCPPPLLNAPRVQAFRAWMFEEVAQFKLLCDELDARRAAGKTPAECAQEGGWKGLRAQP”, the “soluble on expression in E. coli” value was “not soluble”. With “MGSDKIHHHHHHMNKHIASMLLGALLLNVGCSAIMSEKGFITQDKQVTQFNTEYIEKLAQSLPQHMVNQISIDGDEQVSLKGLFIDNPNSHTLVFFIQGNGMKVDPDSLAVLLTLSQLGTDIAIFDRRGLGASNGQATIANLLTDAIQELTFIRHTYQPDKVIVHGYSLGSFIAAQLVKNQAADALVMQGSATNVDDWIATKIPWYMPFLTVETPESFKLVDNQEVVSKFYQGPLMVIGAEKDDQVPAELSEKLFLASQSKIKSLIIVPKANHGEMLNSAKTMQAYREFLARI” the “soluble on expression in E. coli” value was “not soluble”. For “GPGSMRLLSKAAHPDGSMEVRVSVGTAEDLWHLYNFILVGDLVLTKTRRKVPRENALGTLAAEMKMLKLEVEVKHIAFTPDELRIQGVNKKENNFVKTGAHHTLTIHANPPQEVRITKREWDSICEDRLKDACDESGKADTAAVLMSFGEAQVLLVTRSFVHIKAKVEVTISKKHKSDGKARDKSIERFFKQSLDALVTHVDFEKTKLVLLCSPGHVREEFHAYIKEVTQRADHGPLREVYLNLSRFLLVKVSSTTISGLKEALSDPGVAQRMESTKCVDDIRMWEKFQDTMNKDPDRCVYTPQYVYYAAMAGAVGGLMISDDVFRSENPTERRFFLSLVNFVRQSGSPTVNVFSSKHVTGEQLTQLGSVAAVLRFSCPEIDDMEVVPEFLASKEVEEFIRANATARVTV”, the “soluble on expression in E. coli” value was “not soluble”. For “MSDCNWTNPLCNTSLLLASGYALWSCASKKNKKETKTETKKSHDCPPQTIEPVKDEKNSNSEEKKTTSSNNEVPPQKKLIGNDEVKKEKKKSEDDLLDVKKTASKEDDKKRMDKKDPSKKLSKEKLREEKKEQSKKVNKEKKMNKSESVDEDNEQPPEPGSDPRKIWAFKAAKMKCQAISKLHQDKIKGYMPPNCTYTAYDANPDLNRYADVRCIEETRVVLKNHDRDYIHASWMRMPGKDQSTYITTQGPLPETLSDFWHMIYQEKIAYVLMLCTLFEGGVEKCALYYPEKLGEVVKFGKYEITLTECKEEAIAGTIWNALTVTNTEDASSEPLYMNHVQVPWWPDQLAPEDARPMIELYKWVKKVNPKETPICVHCSAGVGRTATFVGIDYATIRIMENPNIEMLDIVREMRAMRFQAVQSHMQFLFLYVVLMEYFIGEGVVERTGRVDTFMTQYKKHAQKKLAKRAAQNQQGEKLAAEEKEKDKVKV”, the “soluble on expression in E. coli” value was “soluble”. In the case of “MQFLSPLILFTSCTLLATSLLAAEQAPPPSECLIKSQQISSQIQDAKTEGNKAEQSGLEKALAEVNANCTETSLLKQREQKVLDAKREVSRRQTDLNKAMDKGDPEKINKRKDKLAESRKELQEAQTDLEKVQSDDLEHHHHHH”, the “soluble on expression in E. coli” value was “not soluble”. With “MAHHHHHHMRKEEMNRNFQNASCKEDNYIKAWLKQTENPEFYKNLNDLDDQSYTNEFVKVVDFNNFNSNFINNMMEEPFGDEFSKQKKRKAYSLFYSNEIGPNNEENYDLKNIYTSFDDSDVKYLKSLDKTPSGNMKDRVKGRYKDEHMSIKKLKRENICNENNEPIFPNNIMMDNSPYYKFRHSNKKPSYGSESTNEFFNNYDFETPIKILSSKKKSYDFKNRKDNSTNTTKENSSRENVSSNNSETKRTINFSNKTDDFNDIPFNSDNEYISSPEYMDHEQNTKYINKKQREVNFLGQKLEYKVVGNVINCSKNHPQFTLF” the “soluble on expression in E. coli” value was “not soluble”. For “MSLSKHHIIVKSGSTLEQLAKAKTFAFDKTGTLTQNQLVIQDVLPENGFDKETIQSYAASLEQQSDHIIANSLVQGTDKNLIQAVSNLQESTGNGVSGTVDGKNVMVGKLSYVAPDANVNKAKTTAVYVSVDGKYAGCITFKDRLRPETPQTLARLRKQGAKHIMMLTGDNKDVAQAIADVAGVDDVRASLLPAQKIEAIKNVAPENRPVVMTGDGINDAPSLTAADVGIAMGAKGASAASESADAVIMVNDLSKINDAVAIAKHTMKVAEGHHHHHH”, the “soluble on expression in E. coli” value was “soluble”. For “MGSDKIHHHHHHMSRSPFQTFVWRSEIFECQSTDIQRFYSLLAIETERLGLGSKILGQAGHHPLYLLQSPGQKAGLPNLLISAGFHGEESAGPWGLLHFLSQLDGELFKRVNLSVLPLVNPTGFAKGHRFNELGENPNRGFFIENGKAKPGADTSAEGRILLEHAHLLQVASRDGILTCHEDVLMTDTYVYTFEPSQAPGRFSHSLRDALGQYFPIAADGDVDNCPVRSGVIFNHFDTSFESFLVRSGARVGCCSETPGQQPLDQRILANAAAMNTFVNMLAPELS”, the “soluble on expression in E. coli” value was “not soluble”. In the case of “MTVEVDEYLNFCGTINEFISAHMLCLGMSVNNYEHRYIWDEILTSKSIKIRPFPFEKTARRSISGMIIKDDYETTLAYNSNMGEKRKNFTISHELIHAMYHLDSENKVFTDTKDTLSYSLADILPEFQANIGASSILLPEPVLINELKKGTPPYFISNRYGISEQAIFMRLLQQMQASFEASYVAAYDTANKIMNGNSKNLAIELGRNLERKILYSNPFYEAITL”, the “soluble on expression in E. coli” value was “not soluble”. With “MSKTAAITIDTPGADDFEPHRRHLYGLAYRMLGSWSEAEDIVQETWLRWREIDPATLDNARAFLSRIATRLCLDVLKSARVRRQVYVGPWLPEPLPDAQAYAGAAPGEIAHDVSVALMLALERLSASERAAFLLHDVFDVPFAEIAGTLGRTEAGCRQLAARARNRVRESRPRFAVEESEGIRLARAFIDAAQHGDVDVLRQLLADDAVLHSDGGGKKLAFMRPILGRANIVRAFAGLARKGQSDLSSVRIVQLNGMPAIYGIERDGLPRTISLGVCGGRIVRVYIMRNPDKLAHLARFTG” the “soluble on expression in E. coli” value was “not soluble”. In the case of “EHAKQASSYIPLDRLSISYCRSSGPGGQNVNKVNSKAEVRFHLASADWIEEPVRQKIALTHKNKINKAGELVLTSESSRYQFRNLAECLQKIRDMIAEA”, the “soluble on expression in E. coli” value was “soluble”. With “MSLSINSETLVNHMNHEIAAIQPSDILAFNAEIANIPGIVRLTLGEPDFNTPEHVKQAAIESIEADESHYAPSNGTLALRTAAAEFLAAKYDVHYDPASEVIITAGATGGIYTALTSILNPGDEVLIPTPIFPLYIAIVKLSGATPVFMDTSDNGFVLSPDQLQTTLAAHPKTKAVVLNFPSNPTGVTYRHDDLKALAAVLADQPIFVLSDEIYSELTYGEPHESIANYLPTQTILLNGVSKSHAMTGWRIGIMCAPKAITAQLGKIHQFTVTSTTTNAQAAAAGLKQLTSRTAGVDTIDIPAAKAAGLVVTNVEGHHHHHH” the “soluble on expression in E. coli” value was “not soluble”. With “MMSDRDYTLIIDKSGSMSTPDQAGGRSRWEIAQESTLALARKCEQFDPDGITVYLFSGKFKRYDDVTSAKVAQIFLENDPAGTTNLAGVLQDALNNYFQRKAAGKTKPNGETILVITDGEPDDRKAVFETIIHATRQMERDEELGISMIQVGSDAQATKFLKALDDQLQSVGAKFDICDTITLEDLEDMSLADVLMNAITDLEHHHHHH” the “soluble on expression in E. coli” value was “soluble”. For “GRPYKLLNGIKLGVYIPQEWHDRLMEIAKEKNLTLSDVCRLAIKEYLDNHDKQKK”, the “soluble on expression in E. coli” value was “soluble”.
